The assay concerns the target COVID-19 Spike-RBD-his fusion protein (novel coronavirus (COVID-19)), P0DTC2. The conditions noted are these: remark: other sources report otherwise.

B1: CD147-his fusion protein, P35613 22-205 (receptor)
chain: AAGTVFTTVEDLGSKILLTCSLNDSATEVTGHRWLKGGVVLKEDALPGQKTEFKVDSDDQWGEYSCVFLPEPMGTANIQLHGPPRVKAVKSSEHINEGETAMLVCKSESVPPVTDWAWYKITDSEDKALMNGSESRFFVSSSQGRSELHIENLNMEADPGQYRCNGTSSKGSDQAIITLRVRSH
The term EC50 denotes the concentration at which the effect is half-maximal. Higher therefore signals lower potency in that assay. Molecule B1 showed an EC50 of 68.8 µg/mL.

Source of the values: patent publication WO2021180110A1.
